# Data taken from the supplement of paper PMC9112550, “Optimization of the antimicrobial peptide Bac7 by deep mutational scanning” (BMC Biology, 2022).
# System: Escherichia coli TOP10
# Test: shrunken log2 fold change of peptide-encoding DNA abundance (4.5 h post-induction vs induction); higher = less antimicrobial activity (less host growth inhibition)
# Conditions: time post-induction: 4.5 h; library: site-saturation at positions 5, 18, 19, 20
# 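Note: peptides expressed intracellularly from a pBAD plasmid library in pooled LB shake-flask culture, induced with 0.3% L-arabinose, DNA abundance read by NGS, three biological replicates, DESeq2 with apeglm shrinkage.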
row,Sequence,shrunken log2 fold change
1,RRIRIRPPRLPRPRPRPRPNPRP,0.091
2,RRIRMRPPRLPRPRPRPHSRPRP,0.211
3,RRIRNRPPRLPRPRPRPSDMPRP,-0.117
4,RRIRVRPPRLPRPRPRPSSSPRP,-0.113
5,RRIRARPPRLPRPRPRPTMTPRP,0.9
6,RRIRRRPPRLPRPRPRPWRKPRP,0.302
7,RRIRDRPPRLPRPRPRPIIWPRP,0.156
8,RRIRLRPPRLPRPRPRPEWMPRP,-0.00172
9,RRIRQRPPRLPRPRPRPVDVPRP,-0.208
10,RRIRVRPPRLPRPRPRPNSAPRP,0.198
11,RRIRERPPRLPRPRPRPQDMPRP,-0.492
12,RRIRARPPRLPRPRPRPVLEPRP,0.488
13,RRIRCRPPRLPRPRPRPVYLPRP,-0.646
14,RRIRYRPPRLPRPRPRPTRSPRP,-0.581
15,RRIRKRPPRLPRPRPRPCWWPRP,0.284
16,RRIRDRPPRLPRPRPRPYFMPRP,-0.735
17,RRIRSRPPRLPRPRPRPKYPPRP,-0.186
18,RRIRCRPPRLPRPRPRPKMRPRP,-0.00909
19,RRIRARPPRLPRPRPRPSFHPRP,-0.215
20,RRIRHRPPRLPRPRPRPKPKPRP,0.231
21,RRIRFRPPRLPRPRPRPNMQPRP,-0.846
22,RRIRARPPRLPRPRPRPAYYPRP,-0.166
23,RRIRIRPPRLPRPRPRPRISPRP,-0.127

row,Sequence,shrunken log2 fold change
1,RRIRRRPPRLPRPRPRPYPQPRP,-0.0454
2,RRIRWRPPRLPRPRPRPYDGPRP,-0.337
3,RRIRVRPPRLPRPRPRPHCTPRP,-1.21
4,RRIRVRPPRLPRPRPRPIHVPRP,-0.155
5,RRIRNRPPRLPRPRPRPKKMPRP,-0.233
6,RRIRYRPPRLPRPRPRPGYPPRP,-0.299
7,RRIRCRPPRLPRPRPRPLTPPRP,0.292
8,RRIRMRPPRLPRPRPRPNDEPRP,0.699
9,RRIRARPPRLPRPRPRPYYWPRP,-0.77
10,RRIRFRPPRLPRPRPRPNKAPRP,-0.268
11,RRIRGRPPRLPRPRPRPKELPRP,0.247
12,RRIRGRPPRLPRPRPRPVVLPRP,0.4
13,RRIRERPPRLPRPRPRPYNTPRP,-0.742
14,RRIRDRPPRLPRPRPRPKKKPRP,-0.0718
15,RRIRMRPPRLPRPRPRPKALPRP,0.025
16,RRIRFRPPRLPRPRPRPYLNPRP,-0.454
17,RRIRERPPRLPRPRPRPTGHPRP,-0.0413
18,RRIRPRPPRLPRPRPRPVSGPRP,0.584
19,RRIRVRPPRLPRPRPRPFLWPRP,-0.698
20,RRIRCRPPRLPRPRPRPHNDPRP,-0.889
21,RRIRTRPPRLPRPRPRPRPGPRP,0.621
22,RRIRLRPPRLPRPRPRPWYDPRP,-0.309
23,RRIRMRPPRLPRPRPRPAHRPRP,0.444

row,Sequence,shrunken log2 fold change
1,RRIRERPPRLPRPRPRPQECPRP,-0.399
2,RRIRIRPPRLPRPRPRPQNQPRP,-1.03
3,RRIRTRPPRLPRPRPRPPVFPRP,0.346
4,RRIRMRPPRLPRPRPRPVTDPRP,-0.0129
5,RRIRSRPPRLPRPRPRPTIAPRP,0.105
6,RRIRKRPPRLPRPRPRPYLGPRP,-0.0981
7,RRIRCRPPRLPRPRPRPEMPPRP,0.65
8,RRIRVRPPRLPRPRPRPPHMPRP,-0.0804
9,RRIRMRPPRLPRPRPRPLVHPRP,0.035
10,RRIRTRPPRLPRPRPRPRLRPRP,0.403
11,RRIRYRPPRLPRPRPRPRGYPRP,-0.365
12,RRIRMRPPRLPRPRPRPYKLPRP,0.00411
13,RRIRMRPPRLPRPRPRPDAFPRP,1.47
14,RRIRVRPPRLPRPRPRPHFKPRP,-0.0898
15,RRIRNRPPRLPRPRPRPKCHPRP,0.0244
16,RRIRPRPPRLPRPRPRPEQQPRP,-0.0146
17,RRIRQRPPRLPRPRPRPRSHPRP,0.183
18,RRIRNRPPRLPRPRPRPMNCPRP,-0.57
19,RRIRQRPPRLPRPRPRPCYWPRP,-0.229
20,RRIRLRPPRLPRPRPRPWAFPRP,0.00977
21,RRIRGRPPRLPRPRPRPYQQPRP,0.0771
22,RRIRKRPPRLPRPRPRPDCTPRP,1.22
23,RRIRMRPPRLPRPRPRPGPYPRP,-0.149

row,Sequence,shrunken log2 fold change
1,RRIRARPPRLPRPRPRPIVLPRP,-0.121
2,RRIRHRPPRLPRPRPRPDEWPRP,-0.000921
3,RRIRTRPPRLPRPRPRPGLMPRP,0.0921
4,RRIRDRPPRLPRPRPRPHHHPRP,-0.505
5,RRIRERPPRLPRPRPRPIAMPRP,0.188
6,RRIRSRPPRLPRPRPRPPCRPRP,0.426
7,RRIRNRPPRLPRPRPRPINFPRP,-0.27
8,RRIRDRPPRLPRPRPRPMACPRP,-0.00146
9,RRIRPRPPRLPRPRPRPDHCPRP,-0.199
10,RRIRIRPPRLPRPRPRPGWNPRP,-0.0913
11,RRIRWRPPRLPRPRPRPTYWPRP,0.235
12,RRIRYRPPRLPRPRPRPIWRPRP,0.0429
13,RRIRFRPPRLPRPRPRPVKYPRP,-0.147
14,RRIRRRPPRLPRPRPRPSDVPRP,-0.374
15,RRIRLRPPRLPRPRPRPTPCPRP,0.152
16,RRIRIRPPRLPRPRPRPNIMPRP,-0.947
17,RRIRLRPPRLPRPRPRPAWYPRP,0.0232
18,RRIRIRPPRLPRPRPRPFNIPRP,-0.93
19,RRIRQRPPRLPRPRPRPPHIPRP,0.213
20,RRIRRRPPRLPRPRPRPQVSPRP,0.0704
21,RRIRPRPPRLPRPRPRPGIGPRP,0.208
22,RRIRDRPPRLPRPRPRPHWPPRP,0.197
